Assays:
[1] = biological target: Human serine racemase (human) (UniProt Q9GZT4); test: ITC; PSD-95 PDZ3 (600 uM, syringe) titrated into hSR (20 uM, cell); 25 °C, 50 mM HEPES pH 8.0; single-site model
[2] = biological target: Human serine racemase (human) (UniProt Q9GZT4)
[3] = biological target: the molecule itself; test: cross-linking; 0.1% (w/v) glutaraldehyde, 10 min, room temperature, 50 mM HEPES pH 8.0; 15 uM hSR and 30 uM PSD-95 PDZ3, together or each alone; SDS-PAGE

Molecule: Third PDZ domain of postsynaptic density protein 95 (domain or fragment)
- Kd [1]: 82 µM
- hSR activity (beta-elimination of L-serine, LDH-coupled assay), 0.44 uM hSR with 500 uM PSD-95 PDZ3, in the absence of ATP [2]: 22%

B1: Human serine racemase (enzyme, UniProt Q9GZT4 1-340, looked up)
chain: MCAQYCISFADVEKAHINIRDSIHLTPVLTSSILNQLTGRNLFFKCELFQKTGSFKIRGALNAVRSLVPDALERKPKAVVTHSSGNHGQALTYAAKLEGIPAYIVVPQTAPDCKKLAIQAYGASIVYCEPSDESRENVAKRVTEETEGIMVHPNQEPAVIAGQGTIALEVLNQVPLVDALVVPVGGGGMLAGIAITVKALKPSVKVYAAEPSNADDCYQSKLKGKLMPNLYPPETIADGVKSSIGLNTWPIIRDLVDDIFTVTEDEIKCATQLVWERMKLLIEPTAGVGVAAVLSQHFQTVSPEVKNICIVLSGGNVDLTSSITWVKQAERPASYQSVSV
notes: human serine racemase (EC 5.1.1.18), PLP-dependent homodimer; monomer 38 kDa; also called hSR; SR; source: E. coli BL21 CodonPlus (DE3)-RIL co-expressing GroEL and GroES, purified (TALON resin); not shown: His6, N-terminal, kept
- binding result [3]: binds

Reference: publication PMC9105370, “Human Serine Racemase Weakly Binds the Third PDZ Domain of PSD-95” (International Journal of Molecular Sciences, 2022)
